Consider 1 molecule from patent US20170275357A1.

The assay has as its target PDGFRα/PDGFRβ. The assay can be described thus: cell-based or functional assay.

B1: α/βVCV2 IgG1.1 (bispecific antibody)
heavy: EVQLVESGGGLVKPGGSLKLSCAASGFAFSSYAMSWVRQSPEKRLEWVATISSGGHYTFYPDSVKGRFTISRDNAKNTLYLQMSSLRSEDTAIYYCARRYYALDYWGQGTSVTVSSASTKGPSVFPLAPSSKSTSGGTAALGCLVKDYFPEPVTVSWNSGALTSGVHTFPAVLQSSGLYSLSSVVTVPSSSLGTQTYICNVNHKPSNTKVDKKVEPKSCGGGGSGGGGSEVQLQQSGPELVKTGASVKISCKASGYSFINHYMNWVKQSRGKSLEWIGYVSCYNGATGYNQKFKDKATFTVDTSSSTAYMQFNNLTSEDSAVYYCARRGFMEAMDYWGQGTSVTVSSEPKSSDKTHTCPPCPAPEAEGAPSVFLFPPKPKDTLMISRTPEVTCVVVDVSHEDPEVKFNWYVDGVEVHNAKTKPREEQYNSTYRVVSVLTVLHQDWLNGKEYKCKVSNKALPSSIEKTISKAKGQPREPQVYTLPPSRDELTKNQVSLTCLVKGFYPSDIAVEWESNGQPENNYKTTPPVLDSDGSFFLYSKLTVDKSRWQQGNVFSCSVMHEALHNHYTQKSLSLSPGK
light: DIVMTQSQKFMSTSLGDRVSVSCKASQNVLTNVAWYQQKPGQSPKTLIYSASYRYSGVPDRFTGSGSGTDFTLTISIVQSEDLAEYFCQQYNIYPWTFGGGTKLEIKRTVAAPSVFIFPPSDEQLKSGTASVVCLLNNFYPREAKVQWKVDNALQSGNSQESVTEQDSKDSTYSLSSTLTLSKADYEKHKVYACEVTHQGLSSPVTKSFNRGECGGGGSGGGGSDIVMTQSPFSLTVTVGEKVTMSCKSSQSLLNSRTRKNYLAWYQQKPGQSPKLLIYWASTRESGVPDRFTGSGSGTDFTLTISSVQAEDLAVYYCKQSYNLYTFGGGTKLEIK
The molecule B1 yielded a % Inhibition of PDGFC-induced NHLF proliferation of 70% and a % Inhibition of PDGFD-induced NHLF proliferation of 100%.
